Results: article PMC7544621 (Structure (London, England : 1993), 2020)

Target: T1, monomeric head domain of HA from H1 A/Solomon Islands/03/2006 (Influenza A virus A/Solomon …)
T1 chain: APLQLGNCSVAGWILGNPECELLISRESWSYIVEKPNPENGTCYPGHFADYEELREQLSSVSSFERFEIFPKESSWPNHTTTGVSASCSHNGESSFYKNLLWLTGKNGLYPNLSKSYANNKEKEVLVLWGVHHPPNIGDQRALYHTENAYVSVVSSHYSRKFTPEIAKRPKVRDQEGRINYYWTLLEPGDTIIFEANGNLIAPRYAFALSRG
Assay: BLI

B1: C05 IgG (anti-influenza human mAb C05) (antibody, V domains shown)
VH: QVQLQESGGGLVQPGESLRLSCVGSGSSFGESTLSYYAVSWVRQAPGKGLEWLSIINAGGGDIDYADSVEGRFTISRDNSKETLYLQMTNLRVEDTGVYYCAKHMSMQQVVSAGWERADLVGDAFDVWGQGTMVTVSS
VL: DIQLTQSPSSLSASVGDRVTLTCQASQDIRKFLNWYQQKPGKGPKLLIYDASNLQRGVPSRFSGGGSGTDFTLIISSLQPEDVGTYYCQQYDGLPFTFGGGTKVVIK
In the case of B1, the Kd is reported as 88 nM.
